Reference: paper PMC4504005 (2015)
Where “and” joins values, the source holds several entries; their conditions need not be identical. Equal entries are not always repeated. Ends that are not written are not given here.

Key:
[1] = biological target: wild-type tethered MBP-RAMP2 ECD-CLR ECD fusion protein (UniProt O60895 43-143)
[2] = biological target: MBP-RAMP2 ECD [L106R]-(GSA)3-CLR ECD-H6 tethered fusion protein (UniProt O60895 43-143, L106R)
[3] = biological target: MBP-RAMP1 ECD-(GSA)3-CLR ECD-H6 tethered fusion protein (UniProt O60894 27-118)

IC50 [1] [µM]	IC50 [2]	IC50 [3] [µM]	Binder
4.79	5.37 µM and 12.9 µM		TVQKLAHQIYQFTDKDKDNVAPRSKISPQGY-NH2 [AM(22–52)NH2]
		0.575	FVPTDVGPFAY-NH2 [CGRPmut [F37Y]]
